In patent JP2019041668A:

Columns and labels:
[1] = molecular target: グリセルアルデヒド由来AGEs含有マウス血清アルブミン (Glycer-AGEs-MSA) (mouse) (UniProt P07724); test: SPR, Biacore T200; Glycer-AGEs-MSA amine-coupled on CM5 chip, antibody 0.001-100 nM as analyte
[2] = molecular target: グリセルアルデヒド由来AGEs含有マウス血清アルブミン (Glycer-AGEs-MSA) (mouse) (UniProt P07724); test: SPR, Biacore T200; Glycer-AGEs-MSA amine-coupled on CM5 chip, antibody 0.8-800 nM as analyte

Chain of UniProt P07724 (P07724 25-608, form in doubt): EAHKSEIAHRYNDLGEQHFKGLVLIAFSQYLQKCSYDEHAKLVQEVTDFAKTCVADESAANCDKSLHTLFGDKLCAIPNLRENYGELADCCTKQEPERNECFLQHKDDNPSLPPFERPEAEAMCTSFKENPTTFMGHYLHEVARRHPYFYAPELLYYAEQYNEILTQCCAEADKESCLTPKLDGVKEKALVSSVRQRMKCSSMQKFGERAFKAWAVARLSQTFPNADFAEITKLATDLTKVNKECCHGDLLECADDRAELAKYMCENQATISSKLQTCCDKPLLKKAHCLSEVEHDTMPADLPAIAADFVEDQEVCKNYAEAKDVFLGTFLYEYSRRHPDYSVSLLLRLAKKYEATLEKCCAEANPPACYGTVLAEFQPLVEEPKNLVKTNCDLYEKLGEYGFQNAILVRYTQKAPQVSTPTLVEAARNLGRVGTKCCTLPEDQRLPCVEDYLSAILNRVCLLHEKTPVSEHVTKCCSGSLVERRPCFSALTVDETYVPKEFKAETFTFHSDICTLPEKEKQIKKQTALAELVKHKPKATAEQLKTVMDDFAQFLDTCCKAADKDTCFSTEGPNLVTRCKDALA

Kd [1]	Kd [2]	Binder
47.6 nM	–	モノクローナル抗体 6B3 (antibody, V domains shown) VH: VKLQQSGAELVKPGASVKLSCKASGYTFTSYWMHWVKQRPGQGLEWIGEINPSNGRSNYKEKFKFKATLTVDKSSRTAYMQLSSLTSEDSAVYYCARGASWFAYWGQGTTVTVSS VL: QIVLTQSPAIMSASPGEKVTISCSASSSVSYMYWYQQKPGSSPKPWIYRTSNLASGVPARFSGSGSGTSYSLTISSMEAEDAATYYCQQYHSYPRTFGGGTKLEIKR
–	376 nM	モノクローナル抗体 11G4 (antibody, V domains shown) VH: VKLQESGAELVKPGTSVKLSCKASGYTFTSYWMHWVKQRPGQGLEWIGEINPSNGRSNYKEKFKFKATLTVDKSSRTAYMQLSRLTSEDSAVYYCARGASWFAYWGQGTTVTVSS VL: ENVLTQSPTIMAASLGQKVTMTCSATSNVSSSYLHWYQQKSGASPKPLIHRTSDLASGVPTRFSGSGSGTSYSLTITSVEAEDDATYYCQQWSGYPFTFGAGTKLELKR
